Assay results: publication PMC5086636 (Toxins, 2016)
Where “and” joins values, the source holds several entries; their conditions need not be identical. Identical values can stand only once.

Columns and labels:
[1] = molecular target: Synaptotagmin-II 8-61 (UniProt P29101); test: ITC; conditions: cited from earlier work
[2] = molecular target: T1, Syt-II_(40-60) peptide (amino acid residues 40-60 of the mouse synaptotagmin protein) (mouse); test: BLI; Octet Red; […]; 25 °C; PBS + 0.02% Tween 20, 1% BSA, 0.05% azide; […]; conditions: one partner purified
T1 peptide: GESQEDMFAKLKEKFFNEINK

[3] = molecular target: Synaptotagmin-II 40-60, P29101
Synaptotagmin-II 40-60, P29101, sequence (P29101 40-60): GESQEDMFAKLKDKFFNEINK

Synaptotagmin-II 8-61, sequence (P29101 8-61): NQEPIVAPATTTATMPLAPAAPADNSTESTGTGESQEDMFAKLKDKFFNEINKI

For BoNT/B 858-1291 (from UniProt P10844), the Kd [1] is listed as 34 nM.

B1: Botulinum neurotoxin type B (natural protein)
chain: MPVTINNFNYNDPIDNNNIIMMEPPFARGTGRYYKAFKITDRIWIIPERYTFGYKPEDFNKSSGIFNRDVCEYYDPDYLNTNDKKNIFLQTMIKLFNRIKSKPLGEKLLEMIINGIPYLGDRRVPLEEFNTNIASVTVNKLISNPGEVERKKGIFANLIIFGPGPVLNENETIDIGIQNHFASREGFGGIMQMKFCPEYVSVFNNVQENKGASIFNRRGYFSDPALILMHELIHVLHGLYGIKVDDLPIVPNEKKFFMQSTDAIQAEELYTFGGQDPSIITPSTDKSIYDKVLQNFRGIVDRLNKVLVCISDPNININIYKNKFKDKYKFVEDSEGKYSIDVESFDKLYKSLMFGFTETNIAENYKIKTRASYFSDSLPPVKIKNLLDNEIYTIEEGFNISDKDMEKEYRGQNKAINKQAYEEISKEHLAVYKIQMCKSVKAPGICIDVDNEDLFFIADKNSFSDDLSKNERIEYNTQSNYIENDFPINELILDTDLISKIELPSENTESLTDFNVDVPVYEKQPAIKKIFTDENTIFQYLYSQTFPLDIRDISLTSSFDDALLFSNKVYSFFSMDYIKTANKVVEAGLFAGWVKQIVNDFVIEANKSNTMDKIADISLIVPYIGLALNVGNETAKGNFENAFEIAGASILLEFIPELLIPVVGAFLLESYIDNKNKIIKTIDNALTKRNEKWSDMYGLIVAQWLSTVNTQFYTIKEGMYKALNYQAQALEEIIKYRYNIYSEKEKSNINIDFNDINSKLNEGINQAIDNINNFINGCSVSYLMKKMIPLAVEKLLDFDNTLKKNLLNYIDENKLYLIGSAEYEKSKVNKYLKTIMPFDLSIYTNDTILIEMFNKYNSEILNNIILNLRYKDNNLIDLSGYGAKVEVYDGVELNDKNQFKLTSSANSKIRVTQNQNIIFNSVFLDFSVSFWIRIPKYKNDGIQNYIHNEYTIINCMKNNSGWKISIRGNRIIWTLIDINGKTKSVFFEYNIREDISEYINRWFFVTITNNLNNAKIYINGKLESNTDIKDIREVIANGEIIFKLDGDIDRTQFIWMKYFSIFNTELSQSNIEERYKIQSYSEYLKDFWGNPLMYNKEYYMFNAGNKNSYIKLKKDSPVGEILTRSKYNQNSKYINYRDLYIGEKFIIRRKSNSQSINDDIVRKEDYIYLDFFNLNQEWRVYTYKYFKKEEEKLFLAPISDSDEFYNTIQIKEYDEQPTYSCQLLFKKDEESTDEIGLIGIHRFYESGIVFEEYKDYFCISKWYLKEVKRKPYNLKLGCNWQFIPKDEGWTE
In the case of B1, the “KD of the first, rapid step (2:1 heterogeneous ligand model)” value [2] is reported as 90 nM and the “KD of the second, slow step (2:1 heterogeneous ligand model)” value [2] is reported as 20 nM.

B2: BoNT/B, P10844 (protein)
chain: PVTINNFNYNDPIDNNNIIMMEPPFARGTGRYYKAFKITDRIWIIPERYTFGYKPEDFNKSSGIFNRDVCEYYDPDYLNTNDKKNIFLQTMIKLFNRIKSKPLGEKLLEMIINGIPYLGDRRVPLEEFNTNIASVTVNKLISNPGEVERKKGIFANLIIFGPGPVLNENETIDIGIQNHFASREGFGGIMQMKFCPEYVSVFNNVQENKGASIFNRRGYFSDPALILMHELIHVLHGLYGIKVDDLPIVPNEKKFFMQSTDAIQAEELYTFGGQDPSIITPSTDKSIYDKVLQNFRGIVDRLNKVLVCISDPNININIYKNKFKDKYKFVEDSEGKYSIDVESFDKLYKSLMFGFTETNIAENYKIKTRASYFSDSLPPVKIKNLLDNEIYTIEEGFNISDKDMEKEYRGQNKAINKQAYEEISKEHLAVYKIQMCKSVKAPGICIDVDNEDLFFIADKNSFSDDLSKNERIEYNTQSNYIENDFPINELILDTDLISKIELPSENTESLTDFNVDVPVYEKQPAIKKIFTDENTIFQYLYSQTFPLDIRDISLTSSFDDALLFSNKVYSFFSMDYIKTANKVVEAGLFAGWVKQIVNDFVIEANKSNTMDKIADISLIVPYIGLALNVGNETAKGNFENAFEIAGASILLEFIPELLIPVVGAFLLESYIDNKNKIIKTIDNALTKRNEKWSDMYGLIVAQWLSTVNTQFYTIKEGMYKALNYQAQALEEIIKYRYNIYSEKEKSNINIDFNDINSKLNEGINQAIDNINNFINGCSVSYLMKKMIPLAVEKLLDFDNTLKKNLLNYIDENKLYLIGSAEYEKSKVNKYLKTIMPFDLSIYTNDTILIEMFNKYNSEILNNIILNLRYKDNNLIDLSGYGAKVEVYDGVELNDKNQFKLTSSANSKIRVTQNQNIIFNSVFLDFSVSFWIRIPKYKNDGIQNYIHNEYTIINCMKNNSGWKISIRGNRIIWTLIDINGKTKSVFFEYNIREDISEYINRWFFVTITNNLNNAKIYINGKLESNTDIKDIREVIANGEIIFKLDGDIDRTQFIWMKYFSIFNTELSQSNIEERYKIQSYSEYLKDFWGNPLMYNKEYYMFNAGNKNSYIKLKKDSPVGEILTRSKYNQNSKYINYRDLYIGEKFIIRRKSNSQSINDDIVRKEDYIYLDFFNLNQEWRVYTYKYFKKEEEKLFLAPISDSDEFYNTIQIKEYDEQPTYSCQLLFKKDEESTDEIGLIGIHRFYESGIVFEEYKDYFCISKWYLKEVKRKPYNLKLGCNWQFIPKDEGWTE
With B2 the Kd [3] was 20 nM and 90 nM.
